Assay results taken from article PMC7242902.
One block for each molecule: values may come before it.

Tests used:
[1] = biological target: CXCR4/LgBiT, genome-edited, in HEK293 cells (human (endogenous in HEK293)) (UniProt P61073)
[2] = biological target: CXCR4/LgBiT, transiently transfected in HEK293 cells (UniProt P61073)
[3] = biological target: HiBiT/CXCR4, exogenously (stably) expressed in HEK293 cells (UniProt P61073)
[4] = biological target: HiBiT/CXCR4, genome-edited, in HEK293 cells (human (endogenous in HEK293)) (UniProt P61073)
[5] = biological target: HiBiT/ACKR3, exogenously expressed in HEK293 cells (UniProt P25106)
[6] = biological target: NLuc/ACKR3, exogenously (stably) expressed in HEK293 cells (UniProt P25106); test: FRET or BRET; NanoBRET saturation binding on live cells (30,000 cells/well) with NLuc-tagged receptor; increasing CXCL12-AF647 for 60 min at 37°C in HBSS with 0.1% BSA; non-specific binding with AMD3100 (10 μM) for CXCR4 or CXCL11 (10 μM) for ACKR3; furimazine 10 μM
[7] = biological target: NLuc/ACKR3, genome-edited, in HeLa cells (human (endogenous in HeLa)) (UniProt P25106); test: as above
[8] = biological target: NLuc/CXCR4, genome-edited, in HEK293 cells (human (endogenous in HEK293)) (UniProt P61073); test: as above
[9] = biological target: NLuc/CXCR4, genome-edited, in HeLa cells (human (endogenous in HeLa)) (UniProt P61073); test: as above
[10] = biological target: NLuc/ACKR3, exogenously (stably) expressed in HEK293 cells (UniProt P25106); test: FRET or BRET; NanoBRET saturation binding on membrane preparations (10 μg membrane protein per well) with NLuc-tagged receptor; increasing CXCL12-AF647 for 60 min at 37°C in HBSS with 0.1% BSA; non-specific binding with AMD3100 (10 μM) for CXCR4 or CXCL11 (10 μM) for ACKR3
[11] = biological target: NLuc/CXCR4, exogenously (stably) expressed in HEK293 cells (UniProt P61073); test: as above
[12] = biological target: HiBiT/CXCR4, genome-edited, in HEK293 cells (human (endogenous in HEK293)) (UniProt P61073); test: FRET or BRET; NanoBRET saturation binding on live HEK293 cells with genome-edited HiBiT/CXCR4; CXCL12-AF647 for 60 min at 37°C, then furimazine (10 μM) and purified cell-impermeant LgBiT (10 nM) added, so that only receptors at the plasma membrane are seen; non-specific binding with AMD3100 (10 μM)
[13] = biological target: HiBiT-Halotag, control peptide; test: split reporter (BiFC, NanoBiT); HiBiT-LgBiT complementation of purified proteins: 1 nM HiBiT-Halotag in HBSS with 0.1% BSA, increasing purified LgBiT; without AMD3100
[14] = biological target: HiBiT-Halotag, control peptide; test: split reporter (BiFC, NanoBiT); HiBiT-LgBiT complementation of purified proteins: 1 nM HiBiT-Halotag in HBSS with 0.1% BSA, increasing purified LgBiT; in the presence of AMD3100 (10 μM)
[15] = biological target: HiBiT/CXCR4, genome-edited, in HEK293 cells (human (endogenous in HEK293)) (UniProt P61073); test: split reporter (BiFC, NanoBiT); HiBiT-LgBiT complementation, saturation on live HEK293 cells with genome-edited HiBiT/CXCR4; increasing purified LgBiT; in the presence of AMD3100 (10 μM)
[16] = biological target: HiBiT/CXCR4, genome-edited, in HEK293 cells (human (endogenous in HEK293)) (UniProt P61073); test: split reporter (BiFC, NanoBiT); HiBiT-LgBiT complementation, saturation on membrane preparations (10 μg, 0.25 mg/ml saponin) from genome-edited HiBiT/CXCR4 HEK293 cells; increasing purified LgBiT; without AMD3100
[17] = biological target: HiBiT/CXCR4, genome-edited, in HEK293 cells (human (endogenous in HEK293)) (UniProt P61073); test: split reporter (BiFC, NanoBiT); HiBiT-LgBiT complementation, saturation on membrane preparations (10 μg, 0.25 mg/ml saponin) from genome-edited HiBiT/CXCR4 HEK293 cells; increasing purified LgBiT; in the presence of AMD3100 (10 μM)
[18] = biological target: HiBiT/CXCR4, genome-edited, in HEK293 cells (human (endogenous in HEK293)) (UniProt P61073); test: split reporter (BiFC, NanoBiT); HiBiT-LgBiT complementation, saturation on live HEK293 cells with genome-edited HiBiT-tagged receptor; increasing purified LgBiT for 30 min at 37°C in HBSS with 0.1% BSA; without AMD3100; non-specific luminescence on wild-type cells
[19] = biological target: HiBiT/β2-adrenoceptor, genome-edited, in HEK293 cells (human (endogenous in HEK293)) (UniProt P07550); test: as above

- pEC50 of CXCL12 (0.3-300 nM) for the increase in NanoBiT luminescence (recruitment of genome-edited β-arrestin2/SmBiT, m14, to genome-edited CXCR4/LgBiT), about 5 min after ligand addition [1]: 7.16 -log M
- pEC50 of CXCL12 (0.3-300 nM) for the increase in NanoBiT luminescence (recruitment of transiently transfected β-arrestin2/SmBiT, m13, to genome-edited CXCR4/LgBiT), about 5 min after ligand addition [1]: 7.69 -log M
- pEC50 of CXCL12 (0.3-300 nM) for the increase in NanoBiT luminescence (recruitment of genome-edited β-arrestin2/SmBiT, m14, to transiently transfected CXCR4/LgBiT), about 5 min after ligand addition [2]: 7.48 -log M
- pEC50 of CXCL12 for the decrease in luminescence (cell surface HiBiT/CXCR4 complemented with purified LgBiT, 10 nM) after 1 h at 37°C, live HEK293 cells stably overexpressing HiBiT/CXCR4 [3]: 8.69 -log M
- pEC50 of CXCL12 for the decrease in luminescence (cell surface HiBiT/CXCR4 complemented with purified LgBiT, 10 nM) after 1 h at 37°C, live genome-edited HEK293 cells [4]: 8.46 -log M
- pEC50 of CXCL12 for the increase in luminescence of live HEK293 cells with exogenous HiBiT/ACKR3 complemented with purified LgBiT [5]: 8.23 -log M
Molecule: CXCL12 (from UniProt P48061 22-93) (ligand)

- pKd [6]: 8.12 -log M
- pKd [7]: 8.77 -log M
- pKd [8]: 7.5 -log M
- pKd [9]: 7.58 -log M
- pKd [10]: 8.83 -log M
- pKd [11]: 7.55 -log M
- pKd [12]: 7.49 -log M
Molecule: CXCL12-AF647 (from UniProt P48061 22-93) (ligand)

- Kd [13]: 6.99 nM
- Kd [14]: 7.73 nM
- Kd [15]: 58.5 nM
- Kd [16]: 180 nM
- Kd [17]: 115 nM
- Kd [18]: 230 nM
- Kd [19]: 54.5 nM
Molecule: Purified LgBiT (domain or fragment)

- pEC50 of CXCL11 for the increase in luminescence of live HEK293 cells with exogenous HiBiT/ACKR3 complemented with purified LgBiT [5]: 7.48 -log M
B1: CXCL11 (ligand)
chain: FPMFKRGRCLCIGPGVKAVKVADIEKASIMYPSNNCDKIEVIITLKENKGQRCLNPKSKQARLIIKKVERKNF
